These results are taken from PMC2196039.

“And” between values parts separate entries of the source, which are not always exact repeats. Identical values can stand only once. Like-named read-outs stand apart in the source and are kept apart here.

For test [1], the target named is soluble recombinant CD80 (sCD80), sCD80his after removal of the carboxy-terminal oligo-histidine tag (human). Description: SPR. (SPR reads the build-up and loss of mass on a sensor chip optically.)
Test [2] concerns the target CD28 Ig (UniProt P10747). Description: SPR.
Test [3] deals with CTLA-4 Ig (human) (UniProt P16410). Description: SPR.
In test [4] the target is CD28 Ig (UniProt P10747). Description: SPR. This is another data set of the same source.
For test [5], the target named is CTLA-4 Ig (human) (UniProt P16410). The experiment in a line: SPR. The source holds these as a separate data set.
Test [6] addresses CD28 Ig (UniProt P10747). The experiment in a line: SPR. This is another data set of the same source.
Test [7] deals with CTLA-4 Ig (human) (UniProt P16410). The experiment in a line: SPR. This is another data set of the same source.
The target in test [8] is CD28 Ig (UniProt P10747). The experiment in a line: SPR. This is another data set of the same source.
Test [9] concerns the target CTLA-4 Ig (human) (UniProt P16410). Description: SPR. This is another data set of the same source.
The target is the same in test [10]. The experiment in a line: pull-down.

Sequence of CTLA-4 Ig (P16410 37-161): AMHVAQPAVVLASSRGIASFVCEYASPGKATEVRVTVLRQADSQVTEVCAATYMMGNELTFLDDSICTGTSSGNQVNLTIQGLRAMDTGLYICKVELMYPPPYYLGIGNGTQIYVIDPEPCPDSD

Regarding “CTLA-4 Ig (from UniProt P16410 37-161) (Fc fusion)”, the fold higher avidity than CD28 Ig in test [1] was above 100 fold.
The term Kd denotes the equilibrium constant for the complex coming apart. Read a high Kd as lower affinity. In the test with CD28 Ig [2], “soluble recombinant CD80 (sCD80), sCD80his after removal of the carboxy-terminal oligo-histidine tag (domain or fragment)” gave an equilibrium dissociation constant (Kd) of 2500 nM. Moreover, in the test with CTLA-4 Ig (human) [3], the Kd turned out to be 260 nM. The Kd with CD28 Ig [4] was found to be 4000 nM. In addition, in the test with CTLA-4 Ig (human) [5], the Kd came out at 420 nM. The substance further had a Kd with CD28 Ig [6] of 4200 nM. This substance also showed a Kd in the test with CTLA-4 Ig (human) [7] of 380 nM. Further, in the test with CD28 Ig [8], the Kd was 4100 nM and 4300 nM; the response at 0.82 μM sCD80 (CD28 Ig 7800 RUs), beginning of the experiment was 160 RU; the t1/2 of dissociation (high CD28 Ig level, 40 μl/min) came to 0.93 s; the t1/2 of dissociation (high CD28 Ig level, 80 μl/min) came out at 0.84 s. In addition, in the test with CD28 Ig [8], the t1/2 of dissociation (low CD28 Ig level, 40 μl/min) worked out at 0.69 s and the t1/2 of dissociation (low CD28 Ig level, 80 μl/min) is 0.64 s. In the test with CTLA-4 Ig (human) [9], this substance yielded a Kd of 400 nM; a response at 0.26 μM sCD80 (CTLA-4 Ig 1,500 RUs), beginning of the experiment of 255 RU; a response at 0.26 μM sCD80 (CTLA-4 Ig 1,500 RUs), end of the experiment of 250 RU; a t1/2 of dissociation (high CTLA-4 Ig level, 20 μl/min) of 4.8 s. In the test with CTLA-4 Ig (human) [9], the t1/2 of dissociation (high CTLA-4 Ig level, 40 μl/min) was 4.4 s; the t1/2 of dissociation (low CTLA-4 Ig level, 20 μl/min) was determined as 2.2 s; the t1/2 of dissociation (low CTLA-4 Ig level, 40 μl/min) stood at 2.35 s. Also, in the test with CTLA-4 Ig (human) [10], the proportion of sCD80 with CTLA-4-binding activity came to 100%.
